Patent publication US20240270860A1

What was measured:
Test in all cases: peptide-array ELISA (CYS.S) [Continued]
[1] = molecular target: T1, 2LS2…2RPGWY2AL
T1 sequence (peptide, 2 = Cys(ACM)): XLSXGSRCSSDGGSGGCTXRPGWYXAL

[2] = molecular target: T2, 2LS2…2RPGWY
T2 sequence (peptide, 2 = Cys(ACM)): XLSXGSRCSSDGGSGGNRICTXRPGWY

[3] = molecular target: T3, 2TREQNRI2…
T3 sequence (peptide, 2 = Cys(ACM)): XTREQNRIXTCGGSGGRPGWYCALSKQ

[4] = molecular target: T4, 2…2RPGWY2AL
T4 sequence (peptide, 2 = Cys(ACM)): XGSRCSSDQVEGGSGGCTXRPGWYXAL

[5] = molecular target: T5, 2…2RPGWY2A
T5 sequence (peptide, 2 = Cys(ACM)): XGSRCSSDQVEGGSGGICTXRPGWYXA

[6] = molecular target: T6, 2…2RPGWY
T6 sequence (peptide, 2 = Cys(ACM)): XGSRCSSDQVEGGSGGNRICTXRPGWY

[7] = molecular target: T7, 2…2…
T7 sequence (peptide, 2 = Cys(ACM)): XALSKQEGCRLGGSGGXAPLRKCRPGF

[8] = molecular target: T8, 2…
T8 sequence (peptide, 2 = Cys(ACM)): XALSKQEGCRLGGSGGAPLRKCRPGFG

[9] = molecular target: T9, 2…; remark: listed apart in the source
T9 sequence (peptide, 2 = Cys(ACM)): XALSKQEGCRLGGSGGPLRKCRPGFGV

[10] = molecular target: T10, 2…; remark: listed apart in the source
T10 sequence (peptide, 2 = Cys(ACM)): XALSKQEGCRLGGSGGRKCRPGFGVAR

[11] = molecular target: T11, EGCRL2…2…
T11 sequence (peptide, 2 = Cys(ACM)): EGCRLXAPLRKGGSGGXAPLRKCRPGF

[12] = molecular target: T12, EGCRL2…
T12 sequence (peptide, 2 = Cys(ACM)): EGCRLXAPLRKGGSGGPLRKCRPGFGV

[13] = molecular target: T13, KQEGCRL2APLGGSGG2…
T13 sequence (peptide, 2 = Cys(ACM)): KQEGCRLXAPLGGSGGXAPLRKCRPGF

[14] = molecular target: T14, KQEGCRL2…
T14 sequence (peptide, 2 = Cys(ACM)): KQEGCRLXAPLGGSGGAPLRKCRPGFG

[15] = molecular target: T15, KQEGCRL2…; remark: listed apart in the source
T15 sequence (peptide, 2 = Cys(ACM)): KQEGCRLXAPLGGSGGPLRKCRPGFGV

[16] = molecular target: T16, KQEGCRL2…; remark: listed apart in the source
T16 sequence (peptide, 2 = Cys(ACM)): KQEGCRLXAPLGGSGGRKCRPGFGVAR

[17] = molecular target: T17, LS2…2RPGWY2
T17 sequence (peptide, 2 = Cys(ACM)): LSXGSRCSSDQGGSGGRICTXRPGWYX

[18] = molecular target: T18, NRI2…
T18 sequence (peptide, 2 = Cys(ACM)): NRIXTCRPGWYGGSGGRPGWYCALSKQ

[19] = molecular target: T19, PE2LS2…2RPGWY2AL
T19 sequence (peptide, 2 = Cys(ACM)): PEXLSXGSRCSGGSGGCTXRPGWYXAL

[20] = molecular target: T20, PE2LS2…2RPGWY2A
T20 sequence (peptide, 2 = Cys(ACM)): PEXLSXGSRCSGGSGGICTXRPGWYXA

[21] = molecular target: T21, QEGCRL2…
T21 sequence (peptide, 2 = Cys(ACM)): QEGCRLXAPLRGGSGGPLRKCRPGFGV

[22] = molecular target: T22, QEGCRL2…; remark: listed apart in the source
T22 sequence (peptide, 2 = Cys(ACM)): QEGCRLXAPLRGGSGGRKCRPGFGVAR

[23] = molecular target: T23, QNRI2…
T23 sequence (peptide, 2 = Cys(ACM)): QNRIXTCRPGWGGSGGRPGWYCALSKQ

[24] = molecular target: T24, S2…2RPGWY2
T24 sequence (peptide, 2 = Cys(ACM)): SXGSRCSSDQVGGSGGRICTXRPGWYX

[25] = molecular target: T25, S2…2RPGWY
T25 sequence (peptide, 2 = Cys(ACM)): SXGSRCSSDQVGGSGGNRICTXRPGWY

[26] = molecular target: T26, SKQEGCRL2…
T26 sequence (peptide, 2 = Cys(ACM)): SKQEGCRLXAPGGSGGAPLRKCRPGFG

[27] = molecular target: T27, SKQEGCRL2…; remark: listed apart in the source
T27 sequence (peptide, 2 = Cys(ACM)): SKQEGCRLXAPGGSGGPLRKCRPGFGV

[28] = molecular target: T28, SKQEGCRL2…; remark: listed apart in the source
T28 sequence (peptide, 2 = Cys(ACM)): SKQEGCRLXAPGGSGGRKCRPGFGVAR

[29] = molecular target: T29, VPE2LS2…2RPGWY2
T29 sequence (peptide, 2 = Cys(ACM)): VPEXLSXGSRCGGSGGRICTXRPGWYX

[30] = molecular target: T30, WY2…
T30 sequence (peptide, 2 = Cys(ACM)): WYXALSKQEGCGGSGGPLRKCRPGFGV

[31] = molecular target: T31, Y2…
T31 sequence (peptide, 2 = Cys(ACM)): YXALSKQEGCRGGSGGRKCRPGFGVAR

[32] = molecular target: T32, …2GGSGGICT2RPGWY2A
T32 sequence (peptide, 2 = Cys(ACM)): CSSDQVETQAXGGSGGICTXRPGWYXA

[33] = molecular target: T33, …2RPGWY2A
T33 sequence (peptide, 2 = Cys(ACM)): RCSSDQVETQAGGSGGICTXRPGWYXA

[34] = molecular target: T34, …2RPGWY2A; remark: listed apart in the source
T34 sequence (peptide, 2 = Cys(ACM)): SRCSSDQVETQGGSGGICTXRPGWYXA

[35] = molecular target: T35, …2RPGWY2
T35 sequence (peptide, 2 = Cys(ACM)): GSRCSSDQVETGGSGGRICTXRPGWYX

[36] = molecular target: T36, …2RPGWY2; remark: listed apart in the source
T36 sequence (peptide, 2 = Cys(ACM)): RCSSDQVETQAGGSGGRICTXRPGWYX

[37] = molecular target: T37, …2RPGWY
T37 sequence (peptide, 2 = Cys(ACM)): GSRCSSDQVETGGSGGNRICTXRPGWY

[38] = molecular target: T38, …2RPGWY; remark: listed apart in the source
T38 sequence (peptide, 2 = Cys(ACM)): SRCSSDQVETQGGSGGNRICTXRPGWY

[39] = molecular target: T39, …2…
T39 sequence (peptide, 2 = Cys(ACM)): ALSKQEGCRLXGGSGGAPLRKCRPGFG

[40] = molecular target: T40, …2…; remark: listed apart in the source
T40 sequence (peptide, 2 = Cys(ACM)): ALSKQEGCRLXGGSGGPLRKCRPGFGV

[41] = molecular target: T41, …2…; remark: listed apart in the source
T41 sequence (peptide, 2 = Cys(ACM)): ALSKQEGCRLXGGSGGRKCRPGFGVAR

[42] = molecular target: T42, …2…; remark: listed apart in the source
T42 sequence (peptide, 2 = Cys(ACM)): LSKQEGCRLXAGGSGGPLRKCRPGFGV

Raw luminescence data [1]: 603 | Raw luminescence data [2]: 878 | Raw luminescence data [3]: 101 | Raw luminescence data [4]: 480 | Raw luminescence data [5]: 402 | Raw luminescence data [6]: 588 | Raw luminescence data [7]: 439 | Raw luminescence data [8]: 418 | Raw luminescence data [9]: 414 | Raw luminescence data [10]: 443 | Raw luminescence data [11]: 604 | Raw luminescence data [12]: 450 | Raw luminescence data [13]: 528 | Raw luminescence data [14]: 242 | Raw luminescence data [15]: 457 | Raw luminescence data [16]: 430 | Raw luminescence data [17]: 546 | Raw luminescence data [18]: 426 | Raw luminescence data [19]: 697 | Raw luminescence data [20]: 542 | Raw luminescence data [21]: 558 | Raw luminescence data [22]: 426 | Raw luminescence data [23]: 240 | Raw luminescence data [24]: 465 | Raw luminescence data [25]: 666 | Raw luminescence data [26]: 220 | Raw luminescence data [27]: 369 | Raw luminescence data [28]: 430 | Raw luminescence data [29]: 478 | Raw luminescence data [30]: 341 | Raw luminescence data [31]: 463 | Raw luminescence data [32]: 454 | Raw luminescence data [33]: 372 | Raw luminescence data [34]: 388 | Raw luminescence data [35]: 594 | Raw luminescence data [36]: 543 | Raw luminescence data [37]: 587 | Raw luminescence data [38]: 482 | Raw luminescence data [39]: 321 | Raw luminescence data [40]: 446 | Raw luminescence data [41]: 455 | Raw luminescence data [42]: 434
B1: antagonistic TNFR2 antibody TNFRAB1 (antibody, V domains shown)
VH: EVQLQESGGGLVKPGGSLKLSCAASGFTFSSYVMSWVRQTPEKRLEWVATISSGGSYTYYPDSVKGRFTISRDNAKNTLYLQMSSLRSEDTAMYYCARQRVDGYSSYWYFDVWGAGTAVTVSS
VL: DIVLTQSPAIMSASPGEKVTITCSASSSVYYMYWFQQKPGTSPKLWIYSTSNLASGVPVRFSGSGSGTSYSLTISRMEAEDAATYYCQQRRNYPYTFGGGTKLEIKR
